Consider one molecule from patent CN116715768A.

This assay concerns the target EGFRvIII (表皮生长因子受体III型突变体) (human) (UniProt P00533). The assay is described as follows: flow cytometry; antibody supernatant on EGFRvIII-PBMC engineered cells, detected with anti-mouse-APC IgG.

B1: Anti EGFRvIII抗体 (抗EGFRvIII单克隆抗体) (antibody, V domains shown)
VH: QVQTQQSGTELVRPGALVKLSCKPSGFNIKDYYMHWVKQRPEQGLEWIGWIDPENGKTKYAPKFQGKAIITADRSSNTAYLQLSSLTSEDTAVYYCAGTADWGQGTTVTVSS
VL: DIQLTQSPLTLSVSIGQPASISCKSSQSLLHSDGETYLNWLLQRPGQSPKRLIYLVSKLDSGVPDRFTGTGSGTDFTLKISRVEAEDLGVYYCWQGKHFPYTFGGGTKLEI
B1 yielded a 结合率 (APC阳性比率) of 93.7%.
